{"source": "paper PMC6684798", "about": "“Structural basis for the target specificity of actin histidine methyltransferase SETD3” (Nature Communications, 2019)", "target": "T1, SETD3 WT (Homo sapiens, UniProt Q86TU7)", "T1 construct": "GST (cleaved yes); made in house; host or cells: Escherichia coli BL21(DE3) CodonPlus", "T1 sequence (Q86TU7 1-594)": "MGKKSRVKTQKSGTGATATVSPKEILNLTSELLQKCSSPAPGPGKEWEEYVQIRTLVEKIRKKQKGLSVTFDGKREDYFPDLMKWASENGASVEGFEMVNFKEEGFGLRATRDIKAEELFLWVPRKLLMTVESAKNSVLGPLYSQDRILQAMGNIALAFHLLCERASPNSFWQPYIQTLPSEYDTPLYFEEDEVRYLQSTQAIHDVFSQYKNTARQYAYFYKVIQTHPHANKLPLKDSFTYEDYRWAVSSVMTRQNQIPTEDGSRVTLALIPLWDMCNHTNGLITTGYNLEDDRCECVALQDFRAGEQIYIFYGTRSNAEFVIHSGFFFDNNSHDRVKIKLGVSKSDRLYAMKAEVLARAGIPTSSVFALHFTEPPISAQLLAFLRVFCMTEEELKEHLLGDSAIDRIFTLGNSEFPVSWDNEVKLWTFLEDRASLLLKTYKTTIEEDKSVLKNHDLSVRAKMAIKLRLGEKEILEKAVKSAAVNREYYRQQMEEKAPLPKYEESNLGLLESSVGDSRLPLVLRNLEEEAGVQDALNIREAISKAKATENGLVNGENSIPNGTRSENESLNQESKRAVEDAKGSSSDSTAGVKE", "assay": "Steady-state kinetics of SETD3 WT on K73 peptides (Fig. 3b, c; pH 10.5, 37 °C, 40 µM SAM)", "format": "biochemical", "procedure": "Fig. 3 Kinetics of SETD3 on H73 and K73 peptides. a Comparison of activities of three variants (WT, N255A, and N255V) on H73(66–80) peptide. The assays were performed at room temperature (~22 °C) and pH 8.0 using [WT] = 0.18 μM, [N255A] = 0.18 μM, and [N255V] = 0.72 μM. b Comparison of SETD3 WT activities on two K73 peptides (residues 66–80 and 66–88). The assays were performed at 37 °C and pH 10.5 using [WT] = 3 and 15 μM, respectively, for the long and short peptides. c Comparison of activities of three variants (N255A, N255V, and WT) on K73(66–88) peptide. The assays were performed at 37 °C and pH 10.5 using [N255A] = 90 nM, [N255V] = 0.72 μM and [WT] = 4 μM. Data represent the mean ± SD of N number of independent determinations (N = 3 for the WT and N = 2 for the mutants) performed in duplicate. Source data are provided as a Source Data file. d, e Mass spectrometry analysis of K73(66–88) methylation kinetic showing representative spectra at various time points for N255A variant (panel d) and SETD3 WT enzyme (panel e). The assays were performed at 37 °C and pH 10.5 using 3 μM for both N255A and WT. f In vitro methylation reactions with SETD3, indicated full-length actin proteins, and radiolabeled methyl donor (^3H-SAM). Right, Reactions were resolved by SDS–PAGE and activity was visualized by autoradiography. […] The first column head is 'SETD3', and the substrate peptide is printed only on the plot axis. / Panel b: the first column head is 'SETD3 (WT)', and the rows are K73 peptide substrates.\nRecombinant human SETD3 (pXC2003) was expressed as a GST-fusion[22] in Escherichia coli BL21(DE3) CodonPlus^TM cells (Stratagene). The SETD3 mutants at residue 255 (N255A; pXC2093 and N255V; pXC2094) were generated with Q5 Site-Directed Mutagenesis Kit (New England Biolabs), confirmed by sequencing and the same protocol for expression and purification were followed. Briefly, the purification was conducted in a BIO-RAD NGC^TM system using a three-column chromatography of glutathione-sepharose, HiTrap Q-HP and Superdex 200. The GST tag was removed by PreScisson Protease (purified in-house). The purified SETD3 proteins at a concentration ~25–35 mg/ml were kept at −80 °C in storage buffer for future use [20 mM Tris (pH 8.0), 200 mM NaCl, 5% glycerol, and 0.5 mM tris (2-carboxyethyl) phosphine (TCEP)].\nA reaction mixture contained 20 mM Tris/HCl (pH 8.0) or 20 mM glycine/NaOH (pH 10.5), 50 mM NaCl, 0.1 mg/ml BSA, 1 mM DTT, 0.18–15 µM SETD3 (as indicated in Fig. 3), 40 µM SAM and varying concentration of peptides. The reactions were carried out at room temperature (~22 °C) or 37 °C for different time (20 min to 3 h) with a total volume of 20 µl, and terminated by the addition of TFA to 0.1% (v/v) for Tris/HCl (pH 8.0) or 0.4% (v/v) for Glycine/NaOH (pH 10.5). Samples terminated with the addition of 0.4% (v/v) TFA were then further diluted 4× with buffer 20 mM Tris/HCl (pH 8.0), 50 mM NaCl, 0.1 mg/ml BSA, 1 mM DTT to reduce the TFA concentration. The dependence of the velocity of product formation per enzyme on substrate concentration was analyzed according to the Michaelis–Menten equation.", "key": {"[1]": {"conditions": "pH 10.5, 37 °C, [WT] = 3 and 15 μM for long and short peptide (Fig. 3b), 4 μM (Fig. 3c)"}, "[2]": {"conditions": "pH 10.5, 37 °C, [WT] = 3 and 15 μM for long and short peptide (Fig. 3b), 4 μM (Fig. 3c), mean ± SD"}}}
{"substance": "K73(66–88): K73-containing actin H73K peptide, residues 66–88 (TLKYPIEKGIVTNWDDMEKIWHH; UniProt P60709 66-88, looked up, variant H73K)", "values": [{"measurement": "increase of catalytic efficiency on K73 by lengthened peptide", "setting": "factor in kcat/Km, long (66–88) vs. short (66–80) peptide", "result": "~ 100"}, {"measurement": "kcat/Km", "setting": "[1]", "result": 36.1, "unit": "M⁻¹ s⁻¹"}, {"measurement": "Km", "setting": "[2]", "result": 5.2, "unit": "µM"}, {"measurement": "Km compared with H73(66–80) peptide", "setting": "pH 10.5, K73(66–88) vs. H73(66–80)", "result": "about four-fold better"}]}
{"substance": "K73(66–80): K73-containing (H73K) actin peptide, residues 66–80 (TLKYPIEKGIVTNWD; UniProt P60709 66-80, looked up, variant H73K)", "values": [{"measurement": "affinity for the substrate weaker than for H73 substrate", "setting": "Km, K73(66–80) vs. H73(66–80)", "result": "~ 20 -fold"}, {"measurement": "maximum reaction rate slower than for H73 substrate", "setting": "kcat, K73(66–80) (pH 10.5, 37 °C) vs. H73(66–80) (pH 8.0, ~22 °C)", "result": "~ 40 -fold"}, {"measurement": "loss in catalytic efficiency", "setting": "kcat/Km, K73(66–80) vs. H73(66–80)", "result": "more than 1000 -fold"}, {"measurement": "kcat/Km", "setting": "[1]", "result": 0.361, "unit": "M⁻¹ s⁻¹"}, {"measurement": "Km", "setting": "[2]", "result": 430, "unit": "µM"}, {"measurement": "kcat", "setting": "[2]", "result": 0.00017, "unit": "s⁻¹"}]}
